Measured values from publication PMC10021056 (Nature Communications, 2023).
Substitutions are numbered along the chain they refer to.

B1: 201805_NiV_PL3_H11 (antibody, V domains shown)
VH: EVQLQQSGPELVKPGTSVKISCKASDYSFTGYFMNWVKQSHGKSLEWIGRINPYNGDTFYNQKFKGKATLTVDKSSSTAHMELLSLTSEDSAVYYCAAFDVYYPAWFAYWGQGTTVTVSS
VL: DIQMTQSSSSFSVSLGDRVTFTCKASEDIYNRLAWYQQKPGNAPRLLISGATSLETGVPSRFSGSGSGKDYTLTITSLQTEDVATYYCQQYWSIPWTFGGGTKLEIK
B2: 201805_NiV_P1_H5 (antibody, V domains shown)
VH: EFQLQQSGPEVVKPGASVRISCKTSGYSFTDYNMNWVRQNNGRSLEWIGVINPNYGTFTYNQKFRGKATLTVDQSSSTAYMQLNSLTSADSAVYFCARAPDYYGINFYFDYWGQGTTLTVSA
VL: DVVMTQTPLSLPVSLGDQASISCRSSQSLVHSNGDTYLHWYLQKPGQSPKLLIYKVSNRFSGVPDRFSGSGSGTDFTLKISRVEAEDLGVYFCSQSTHVPPWTFGGGTKLEIK
B3: 201805_NiV_PL4_F4 (antibody, V domains shown)
VH: B2 VH with R19K, R38K, N40S, R43K, F58T, A89E, F95Y
VL: B2 VL with T7S
B4: 201805_NiV_PL3_D4 (antibody, V domains shown)
VH: EVQLQQSGPELVKPGASVKMSCKASGYTFTSNVMHWVKQKPGQGLEWIGYINPYNDGTRYNEKFKGKATLTSDKSSSTAYMELSSLTSEDSAVYYCARRFYRGAMDYWGQGTSVTVSA
VL: NIVLHQSPASLAVSLGQRATISCRASESVDTYDNSFMHWYQQKPGQPPKLLIYLASKLESGVPARFSGSGSRTDFTLTIDPVEADDAATYYCQQNYEDPYTFGGGTKLEIK
B5: 201805_NiV_PL4_C5 (antibody, V domains shown)
VH: EVQLQQSGPELVKPGASMKISCKASGYSFTGYTMNWVKQSHGKNLEWIGLINPYIGGTSYNQKFKGKATLTVDKSSSTAYMELLSLTSEDSAVYYCARLLGREGYYFDYWGQGTTLTSLS
VL: DIQMTQTTSSLSASLGDRVTISCRASQDISNYLNWYQQKPDGTVKLLIYYTSRLHSGVPSRFSGSGSGTDYSLTISNLEQEDIATYFCQQGTTLPFTFGSGTKWKN
B6: 201805_NiV_PL4_D8 (antibody, V domains shown)
VH: EVQLQQSGPELVKPGASVKISCQASGYTFTDSNMNWVRQTHGKSLEWIGDVNPNNGGTSYNQRFKGKATLTVDKSSSTAYMEFRSLTSEDSAVYFCSRRALITTVVADYYGLDYWGQGTSVTVSA
VL: SIVMTQSPKFLLVSAGDRVTMTCKASQSVNSDVVWFQQKPGQSPKLLIYYASIRYTGVPDRFTGSGYGTDFTFTISPVQAEDLAVYFCQQDYSSPYTFGGGTKLEIK
B7: 201805_NiV_PL3_C3 (antibody, V domains shown)
V domain 1: RFKLQQSGPELVKPGASMKISCKASGYSFTGYTMNWVKQSHGKNLEWIGLINPYIGGTSYNQKFKGKATLTVDKSSSTAYMELLSLTSEDSAVYYCARGGVYYGSNYDFDYWGQGTTLTSLS
V domain 2: DIQMTQTTSSLSASLGDRVTISCSASQGISNYLNWYQQKPDGTVKLLIYYTSSLHSGVPSRFSGSGSGTDYSLTISNLEPEDIATYYCQQYSKLPRTFGGGTKLKSN
B8: 201805_NiV_PL3_G2 (antibody, V domains shown)
VH: QIQLVQSGPELKKPGETVKISCTTSGFIFRNYGVNWVKRAPGKGLKWMGWIDAYTGEPAYADDFKGRFAFSLEMSANTAYLQITNLKNEDMATYFCARQGWGEAMDYWGQGTSVTVSS
VL: DVLMTQSPLSLPVSSGDQASISCRSSQTFVHSNGNTYLEWYLQKPGQSPKLLIYKVSNRFSGVPDRFIGSGSGTDFTLKISRVEADDLGVYYCFQGSHVPWAFGGGTKLEIK
B9: 201805_NiV_PL3_G11 (antibody, V domains shown)
VH: QVQLQQSGAELVKPGASVKLSCKASGYIFTNYDINWVRQRPEQGLEWIGWIFPGDVSTNYNEKFKGKATLTTDKSSSTAYMQLSRLTSEDSAVYFCARRSFQAMDYWGQGTSVTVSA
VL: B8 VL with S7T, S15L, T28S, F29I, I68S, D86E, A102T
B10: 201805_NiV_PL3_E1 (antibody, V domains shown)
VH: RFRLQQSGAELVKPGASVKLSCRASGYIFTSYWMHWVKQRPGQGLEWIGMIHPNSGSPNYNEKFKSKATLTVDNSSSTAYMQLSSLTSEDSAVYYCARTLLGQGAWFAYWGQGTLVTLAA
VL: YIQMTLSPATLSVTPGDRVSLSCRASQSISDFLHWYQQKSHESPRLLIKYASQSISGIPSRFSGSGSGSDFTLSINSVEPEDVGVYYCQNGHSFPYTFGGGTKLKT
B11: 201805_NiV_PL4_C7 (antibody, V domains shown)
VH: FEESGGLVQPGGSMKISCVASGFTFSNYWMNWVRQSPEKGLEWIAQIRLKSDNYATHYAESVKGRFTISRDDSKSSVYLQMNNLRAEDSGIYYCTGILDYWGQGTSVTVSQ
VL: YIQMTQSPSSMSVSLGDTVSITCHASQGISSNIGWLQQKPGKSFKVLIYHGTNLEDGVPSRFSGSGSGADYSLTISSLESEDFADYYCVQYAQFPYTFGGGPNDKT
B12: 201805_NiV_P2_D4 (antibody, V domains shown)
VH: EVQLQQSGAELVKPGASVKMSCKASGYTFTDYSIHWVKQKSGQGLEWIGWFYPGSGSIKNSDKVKDEAILTADKSSSTVYLELSSLTSEDSAVYFCARHGGGYDYGRAWFVYWGQGTLVTLEQ
VL: FTQMTQSPKFLLVSAGDRVTITCKASQSVSNDVAWYQQKPGQSPKLLIYYASNRYTGVPDRFTGSGYGTDFTFTISTVQAEDLAVYFCQQDYGSPYTFGGGTKLKN
B13: 201805_NiV_PL3_H3 (antibody, V domains shown)
V domain 1: EVQLEESGGGLVPGGSLKLSCAASGFTFISYAMSWIRQTPEKRLEWVATITSGGSYTYYPDSVMGRFTISRDNAKNTLHLQMSSLRSEDTAIYYCARGGYGSISPYYFDYWGQGTTLTSSA
V domain 2: B1 VL with F21I, S26G, T52I, T74S, S93T, I94N, E105K, I106S, K107N
B14: 201805_NiV_PL3_A4 (antibody, V domains shown)
VH: QVQLQQSGTELVKPGASVKLSCKASGYTFTSYWMHWVKQRPGQGLEWIGNINPSNGYTNNNEKFKSKATLTVDKSSSTAYMQLSSLTSEDSAVYYCARGGIYYYGSSLYYYTMDYWGQGTSVTVSS
VL: B1 VL with F21I, G50D, T74S, Q89H, I94T
B15: 201805_NiV_PL4_D5 (antibody, V domains shown)
VH: QIQLVQSGPELKKPGETVKISCKASGFTFTNYGINWVKQAPGKGLKWMGWTDTFTGEPTYADDFKGRFAFSLETSASTAYLQINNLKNEDMATYFCARQGWGEAMDYWGQGTSVTVSA
VL: DVLDEQFHFLPVSLGDQASISCRSSQSIVHSNGNTYLEWYLQKPGQSPKLLIYKVSNRFSGVPDRFSGSGSGTDFTLKISRVEAEDLGVYYCFQGSHVPWTFGGGTKLEIK
B16: 201805_NiV_P1_A6 (antibody, V domains shown)
VH: LCLLTSSRSGLVRPGASVKLSCKASGYSFTSYWMNWVKQRPGHGLEWIGMIHPSDSETRLNQRFKDKATLTVDKSSSTAYMQLSSPTSEDSAVYYCAREDFYAMDYWGQGTSVTFSA
VL: DIVMSQSPSSLAVSVGEKITMSCKSSQSLLYSSNKKKYLAWYQQKPGQSPKLLIYWASTRESGVPDRFTGSGSGTDFTLTISSVKAEDLAVYYCQQYYSYPYTFGGGPSNKR
B17: 201805_NiV_PL3_H6 (antibody, V domains shown)
VH: EVQLEESGGGLVKPGGSLKLSCTASGFAFSTYDMSWVRQTPEKRLEWVAYISSGGGSTYYPDSVKGRFTISRDNARNTLYLQMSSLKSDDTAMYYCVRDDGYYGGAWFAYWGQGTLVTVSA
VL: DIQMTQTTSSLSASLGDRVTISCRASQDIRNYLNWYQQKPDGTVKLLIYYTSRFHSGVPSRFSGSGSGTDYSLTINNLEQEDITTYFCQQGYILPWTFGGGTKLEIK
B18: 201805_NiV_PL4_E1 (antibody, V domains shown)
VH: EVQLEESGGGLVPGGSLKLSCAASGFTFSDYYMYWVRQTPEKRLEWVATISDGGSYTYYPDSVKGRFTISRDNAKNNLYLQMSSLKSEDTAMYYCAREKPDRGHYYAMDYWGQGTSVTVLQ
VL: IQMTQSSSSFSVSLGDRVTITCKASEDIYNRLAWYQQKPGNAPRLLISGATSLETGVPSRFSGSGSGKDYTLSITSLQTEDVATYYCQQYWSTPYTFGGGTKLKN
B19: 201805_NiV_PL4_E11 (antibody, V domains shown)
VH: QVQLQQSGAELVKPGASVKLSCKASGYTFTNYDINWVRQRPEQGLEWIGWIFPGDGTTSYNEKFKDKATLTTDKSSSTAYMQLSRLTSEDSTVYFCARLGWGGAMDYWGQGTSVTVSA
VL: YTLMTQSPLSLPVSLGDQASISCRSSQSIVHSNGNTYLQWYLQKPGQSPKLLIYKVSNRFSGVPDRFSGSGSGTDFTLKISRVEAEDLGVYYCFQGSHVPYTFGGGPSNKR
B20: 201805_NiV_P2_F7 (antibody, V domains shown)
VH: QVQLQQSGAELVKPGASVKMSCKASGYTFTNYWIHWVKQRPGQGLEWIGEIDPSNGNSDHNQDFKVKATLTVDTFSSTAYMQLNSLTSEDSAVYYCARSRYYFDYWGQGTTLTVSA
VL: QIVLPQSPAIMSASPGEKVTLTCSARSSVSSGYLYWYQQKPGSSPKLWIYSTSNLASGVPTRFSGSGSGTSYSLTISSMEAEDAASYFCHQWSSYPPTFGGGTKLEIK
B21: 201805_NiV_P1_G1 (antibody, V domains shown)
VH: QVQLQQSGAELAKPGASVKLSCKATGYTFTGSWIEWVKLRPGHGLEWFGEIFPGTGSVKHNEKFRGKAIITAETSSNTAYMKLSSLTTEDSAIYFCSRSNTNYEFFDVWGTGTTVTVSS
VL: EILLTQSPAIISASPGERVTFTCSASSGVNYMNWYQQKPGSSPKIWIYGVSNLASGVPARFSGSGSGTSFSFTITNLEAEDVATYYCQQRSTFPLTFGAGTKLEIK

The binders below were run against prefusion-stabilized NiV F (NiVop08) (Nipah virus, Malaysian strain, stabilised).

Binder | binding result
B1 | binds
B2 | binds
B3 | binds
B4 | binds
B5 | binds
B6 | binds
B7 | binds

What follows are binders tested against prefusion-stabilized Nipah virus fusion (F) glycoprotein, construct NiVF_prefusion (Nipah virus, Malaysian strain, stabilised).

Binder | binding result
B8 | binds
B9 | binds
B10 | binds
B11 | binds
B12 | binds
B13 | binds
B14 | binds
B15 | binds
B16 | binds
B17 | binds
B18 | binds
B19 | binds
B20 | binds
B21 | binds

What follows are binders tested against postfusion Nipah virus fusion (F) glycoprotein, construct NiVF_postfusion (Nipah virus, Malaysian strain, stabilised).

Binder | binding result
B8 | binds
B9 | binds
B10 | binds
B13 | binds
B15 | binds
B16 | binds
B17 | binds
B19 | binds
B20 | binds
B21 | binds
